Results reported in paper PMC9270970.

Biological target: SynNotch receptor (CD8a signal-Myc-LaG17-Notch1 minimal transmembrane core-tTA) (mouse) (UniProt Q01705)
Chain of UniProt Q01705 (Q01705 whole entry): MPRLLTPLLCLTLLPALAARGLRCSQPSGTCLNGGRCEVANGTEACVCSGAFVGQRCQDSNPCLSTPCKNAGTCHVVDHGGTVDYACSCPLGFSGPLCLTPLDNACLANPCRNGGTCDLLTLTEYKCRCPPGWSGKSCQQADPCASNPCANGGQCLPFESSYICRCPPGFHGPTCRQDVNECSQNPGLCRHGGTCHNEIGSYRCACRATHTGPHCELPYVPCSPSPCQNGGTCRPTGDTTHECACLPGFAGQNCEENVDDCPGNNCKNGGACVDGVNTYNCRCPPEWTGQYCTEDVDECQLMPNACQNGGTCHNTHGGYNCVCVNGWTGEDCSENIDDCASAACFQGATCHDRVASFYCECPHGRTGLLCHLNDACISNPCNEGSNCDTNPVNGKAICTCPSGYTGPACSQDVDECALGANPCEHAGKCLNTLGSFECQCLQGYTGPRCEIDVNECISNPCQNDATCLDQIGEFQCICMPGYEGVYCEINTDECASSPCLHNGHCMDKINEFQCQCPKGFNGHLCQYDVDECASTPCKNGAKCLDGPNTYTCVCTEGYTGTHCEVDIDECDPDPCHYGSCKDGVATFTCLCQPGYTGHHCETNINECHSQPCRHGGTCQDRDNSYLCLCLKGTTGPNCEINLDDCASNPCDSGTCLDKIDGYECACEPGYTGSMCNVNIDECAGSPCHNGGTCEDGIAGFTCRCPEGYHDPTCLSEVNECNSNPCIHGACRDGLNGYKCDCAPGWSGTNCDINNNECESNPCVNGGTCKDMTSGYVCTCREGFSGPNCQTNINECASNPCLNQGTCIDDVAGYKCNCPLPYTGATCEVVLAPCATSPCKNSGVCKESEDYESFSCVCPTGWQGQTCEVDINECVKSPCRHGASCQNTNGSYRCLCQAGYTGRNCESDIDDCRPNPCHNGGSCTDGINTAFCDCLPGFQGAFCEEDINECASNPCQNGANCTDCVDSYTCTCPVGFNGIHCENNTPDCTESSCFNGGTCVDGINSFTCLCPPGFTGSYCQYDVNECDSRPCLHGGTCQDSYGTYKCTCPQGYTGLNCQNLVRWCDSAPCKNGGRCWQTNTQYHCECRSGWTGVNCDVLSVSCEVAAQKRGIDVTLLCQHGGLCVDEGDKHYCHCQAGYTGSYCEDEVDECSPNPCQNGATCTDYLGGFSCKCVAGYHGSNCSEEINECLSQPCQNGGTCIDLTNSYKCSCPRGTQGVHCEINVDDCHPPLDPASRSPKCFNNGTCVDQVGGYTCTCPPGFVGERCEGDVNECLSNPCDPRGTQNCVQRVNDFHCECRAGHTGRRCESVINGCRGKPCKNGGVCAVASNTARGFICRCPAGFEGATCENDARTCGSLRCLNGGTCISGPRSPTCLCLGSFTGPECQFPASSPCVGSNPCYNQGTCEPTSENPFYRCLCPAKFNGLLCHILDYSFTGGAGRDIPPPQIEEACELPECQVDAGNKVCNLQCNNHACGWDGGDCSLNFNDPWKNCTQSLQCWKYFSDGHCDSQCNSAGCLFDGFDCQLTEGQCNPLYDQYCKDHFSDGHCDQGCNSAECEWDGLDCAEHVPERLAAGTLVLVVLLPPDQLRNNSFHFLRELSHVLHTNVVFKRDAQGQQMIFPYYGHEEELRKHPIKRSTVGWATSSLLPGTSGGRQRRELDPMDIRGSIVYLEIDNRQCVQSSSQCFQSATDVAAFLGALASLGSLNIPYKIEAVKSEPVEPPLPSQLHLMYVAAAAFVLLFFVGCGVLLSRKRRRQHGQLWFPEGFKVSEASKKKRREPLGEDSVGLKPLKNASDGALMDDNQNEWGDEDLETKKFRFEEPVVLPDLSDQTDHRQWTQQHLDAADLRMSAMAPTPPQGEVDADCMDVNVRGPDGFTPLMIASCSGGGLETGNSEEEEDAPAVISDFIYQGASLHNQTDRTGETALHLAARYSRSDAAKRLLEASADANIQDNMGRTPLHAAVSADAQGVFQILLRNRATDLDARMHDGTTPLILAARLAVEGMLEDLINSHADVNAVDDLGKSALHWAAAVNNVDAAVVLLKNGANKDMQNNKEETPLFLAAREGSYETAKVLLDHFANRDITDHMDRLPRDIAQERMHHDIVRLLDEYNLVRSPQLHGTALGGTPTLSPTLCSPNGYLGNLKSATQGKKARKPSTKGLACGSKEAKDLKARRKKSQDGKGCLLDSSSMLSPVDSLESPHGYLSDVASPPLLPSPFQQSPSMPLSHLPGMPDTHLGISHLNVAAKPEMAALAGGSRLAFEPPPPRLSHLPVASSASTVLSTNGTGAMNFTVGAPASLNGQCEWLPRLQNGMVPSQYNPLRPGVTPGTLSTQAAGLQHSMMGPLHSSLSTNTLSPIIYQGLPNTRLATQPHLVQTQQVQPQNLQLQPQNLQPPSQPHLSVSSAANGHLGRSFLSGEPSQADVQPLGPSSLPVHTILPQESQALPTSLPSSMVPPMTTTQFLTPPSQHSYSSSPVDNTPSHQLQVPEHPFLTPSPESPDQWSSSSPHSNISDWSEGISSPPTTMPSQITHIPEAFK

percentage of STC receiver cells that induce mCherry after 24 h of co-culture with different proportions of sender cells (20% to 90% sender cells): > 90%
Substance: membrane-tethered extracellular EGFP (IgGK signal-EGFP-PDGFRB TMD) (ligand)
